± gives the uncertainty stated by the source.
assay: protein stability index of a GFP-peptide fusion (yeast GPS) (PSI 1-4); higher = more stable; sorted into four equal gates, so the index is relative within each strain; conditions: doa10∆
Summary of the method: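 The protein stability index of a peptide was calculated by multiplying its read frequency in each gate by that gate's number and adding the products. The peptides were tiled 17-residue stretches of yeast proteins, fused downstream of GFP on a Cherry-expressing plasmid and carried in yeast as a pooled library. Mid-log cultures in leucine-free medium were sorted into four equal gates by GFP/Cherry ratio, and each gate's plasmids were PCR-amplified and Illumina-sequenced.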

Row | Sequence | protein stability index
1 | DRQIINEKMQLLKDIFA [SIR4] | 2.25 ± 0.042
2 | DRRKARKAYFTAPSSQR [RPL26A] | 2.59 ± 0.069
3 | DRTLPHFSKDDYSPESK [RPO21] | 3.07 ± 0.1
4 | DSDMLTKSHNTVQSWLC [NUT1] | 2.53 ± 0.18
5 | DSEDEDSMKDTTDMISV [YML031W/NDC1] | 3.17 ± 0.17
6 | DSEERDPKLEKCLNYRN [ITC1] | 2.85 ± 0.07
7 | DSENNEENSSSNGNNLP [RGR1] | 2.96 ± 0.061
8 | DSIPYPQIVKLFDISRE [ECM29] | 1.65 ± 0.065
9 | DSKLLPKNIEPPLTSQY [SWI3] | 2.89 ± 0.058
10 | DSLRKLYVDSESTSSTE [MTW1] | 2.86 ± 0.072
11 | DSMKYTISSLFVQLCEM [RPC82] | 1.86 ± 0.044
12 | DSNKTLLHNHLKSIESL [SMC2] | 1.87 ± 0.089
13 | DSNTTEILTSVDVLGTH [SIR4] | 2.92 ± 0.063
14 | DSSSQCIVDFTNPKLKS [YMR129W/POM152] | 2.2 ± 0.053
15 | DSVFEQNEMIDAIAVTK [RPL3] | 2.57 ± 0.095
16 | DTCAVSFDAVSDSIELL [YJR042W/NUP85] | 3.04 ± 0.12
17 | DTFDGSDLRVLSGSISE [FAS1] | 1.6 ± 0.079
18 | DTIMENPEPNKKNIQKA [IRR1] | 2.36 ± 0.25
19 | DTKIDQVNGNIRKVSND [SMC3] | 3.47 ± 0.16
20 | DTKPFLNKDSTNEFVGS [NUT1] | 3.09 ± 0.064
21 | DTSGLKISNSEFFNPEI [SIN4] | 3.21 ± 0.096
22 | DTSNWELSDSWRAHDSS [YGL100W/SEH1] | 3.29 ± 0.068
23 | DTTANNGKVQYFLRRQY [YJL039C/NUP192] | 2.71 ± 0.095
24 | DTVDRLIIKYQKYWESM [GAL11] | 2.73 ± 0.053
25 | DTVEEKKEEKLNIGKNF [SIR4] | 2.42 ± 0.16

Row | Sequence | protein stability index
26 | DTYKRFKYLLGVTDLFR [ISW2] | 1.85 ± 0.045
27 | DTYPYLTGEWSTKFDYP [FAS1] | 3.19 ± 0.073
28 | DVDQHGNDNNSDSNANA [SWI3] | 3.01 ± 0.045
29 | DVFNLLPNLGTPDDDEI [RPN8] | 1.96 ± 0.071
30 | DVKISNDFFDNGDNLYG [RPN4] | 2.39 ± 0.086
31 | DVKLVLASNFDNFDYFN [MED1] | 3.17 ± 0.065
32 | DVKSSLSKVFSDVLFEF [YJL039C/NUP192] | 2.82 ± 0.12
33 | DVLKENNDADKGRSYAY [RIP1] | 3.48 ± 0.13
34 | DVNDVLTKYIRSKNLIF [GRR1] | 2.68 ± 0.066
35 | DVTHTLGMLDDNKMDSV [SMC4] | 3.15 ± 0.095
36 | DVYSPEKGSWEQLSPQD [BRR2] | 3.15 ± 0.15
37 | DWPTYVDQNPLTMHKII [SRB8] | 2.45 ± 0.09
38 | DYCRILSDIETAVNGID [YGL172W/NUP49] | 3.28 ± 0.16
39 | DYKGAKLNVVGWFHSHP [RRI1] | 2.81 ± 0.097
40 | DYKTAFSYFFESFESYH [RPN6] | 2.37 ± 0.058
41 | DYSRKQLGYGKFLILNE [NUT1] | 2.97 ± 0.2
42 | DYVTNPDTKISSAAILG [RPN1] | 2.42 ± 0.087
43 | EAARICANKYMTTVSGR [RPL10] | 2.24 ± 0.24
44 | EAFIASGITDPYEMYKY [FAS2] | 1.81 ± 0.038
45 | EALIEFIYDTEKNGGLG [FAS2] | 2.52 ± 0.079
46 | EARLPSQVVWIRRLRVL [RPL19A] | 1.31 ± 0.072
47 | EATREVFGISKTSSGSY [ITC1] | 3.33 ± 0.09
48 | EDAIHIALLTLKESVEG [PRE8] | 2.94 ± 0.092
49 | EDEDDGESEKSSDVDMD [RPC53] | 3.28 ± 0.11
50 | EDEEEFSIFNYFKMFPA [RPC34] | 3.27 ± 0.19

Row | Sequence | protein stability index
51 | EDLHEKNDSAEVRQETQ [NUT1] | 3.48 ± 0.1
52 | EDLKNFIFQIIEITNSN [SRB8] | 1.96 ± 0.075
53 | EDNKYAIAGNSTTNSDV [RGR1] | 2.89 ± 0.13
54 | EDQKVVDKALIAEIKKT [RPL6A] | 3.37 ± 0.13
55 | EDRNESVNIAFAISMGY [ECM29] | 3.02 ± 0.12
56 | EDSMIMNQSSIDRGLFR [RPB2] | 2.55 ± 0.08
57 | EEAYDNPHDTLNRIKKY [PRP8] | 3.42 ± 0.13
58 | EEEDSILSLEQSSRVVS [YCS4] | 3.11 ± 0.12
59 | EEEKSVDASPNDVTRRT [CSL4] | 3.25 ± 0.08
60 | EEEQDTGESEESSSEDD [IRR1] | 3.23 ± 0.2
61 | EEHHEEEPSRVDPEQEA [RPT4] | 3.09 ± 0.082
62 | EEKVLSTRLKKACKTAD [SRP68] | 3.18 ± 0.087
63 | EELLDNCIETFVAEKTT [SRB6] | 2.43 ± 0.16
64 | EELVSLAVFLFDIYNRD [YJL039C/NUP192] | 2.03 ± 0.099
65 | EEREGTDQSTEEEKSVD [CSL4] | 3.16 ± 0.16
66 | EESIRESLQKRELLKSQ [SIR3] | 3.13 ± 0.063
67 | EESISKFPDMGSLWVEF [RPB5] | 2.53 ± 0.073
68 | EFDSTDTSLCINGEPSI [RRI1] | 3.16 ± 0.077
69 | EFESELKNVEETQEIKE [ESC2] | 3.54 ± 0.25
70 | EFGADWYKVAKNVGNKS [SWI3] | 3.35 ± 0.1
71 | EFGTYGKYVIAGHVSGV [RPN14] | 1.57 ± 0.14
72 | EFLFESLKNDLPQFRSS [ECM29] | 2.93 ± 0.087
73 | EFRSAAGQLALDLANSG [YDL116W/NUP84] | 2.79 ± 0.14
74 | EGAEPGPPYTTDEHLIF [ISW2] | 2.91 ± 0.043
75 | EGEKCHPQDFGNPGRIR [SEC65] | 3.03 ± 0.076

same assay, conditions: pdr5∆

Row | Sequence | protein stability index
76 | DRQIINEKMQLLKDIFA [SIR4] | 2.64 ± 0.054
77 | DRRKARKAYFTAPSSQR [RPL26A] | 2.49 ± 0.091
78 | DRTLPHFSKDDYSPESK [RPO21] | 3.22 ± 0.074
79 | DSDMLTKSHNTVQSWLC [NUT1] | 2.63 ± 0.22
80 | DSEERDPKLEKCLNYRN [ITC1] | 2.74 ± 0.088
81 | DSENNEENSSSNGNNLP [RGR1] | 2.96 ± 0.056
82 | DSIPYPQIVKLFDISRE [ECM29] | 1.3 ± 0.057
83 | DSKLLPKNIEPPLTSQY [SWI3] | 2.91 ± 0.049
84 | DSLRKLYVDSESTSSTE [MTW1] | 3.51 ± 0.1
85 | DSMKYTISSLFVQLCEM [RPC82] | 2.26 ± 0.042
86 | DSNKTLLHNHLKSIESL [SMC2] | 2.44 ± 0.095
87 | DSNTTEILTSVDVLGTH [SIR4] | 2.96 ± 0.058
88 | DSSSQCIVDFTNPKLKS [YMR129W/POM152] | 2.43 ± 0.058
89 | DSSYQDIFAVNLEESSK [RET1] | 2.09 ± 0.25
90 | DSVFEQNEMIDAIAVTK [RPL3] | 2.8 ± 0.12
91 | DTCAVSFDAVSDSIELL [YJR042W/NUP85] | 3.46 ± 0.1
92 | DTFDGSDLRVLSGSISE [FAS1] | 2.34 ± 0.067
93 | DTIMENPEPNKKNIQKA [IRR1] | 2.84 ± 0.13
94 | DTKIDQVNGNIRKVSND [SMC3] | 3.07 ± 0.24
95 | DTKPFLNKDSTNEFVGS [NUT1] | 2.79 ± 0.054
96 | DTSGLKISNSEFFNPEI [SIN4] | 3.44 ± 0.12
97 | DTSNWELSDSWRAHDSS [YGL100W/SEH1] | 3.37 ± 0.058
98 | DTTANNGKVQYFLRRQY [YJL039C/NUP192] | 2.65 ± 0.14
99 | DTVDRLIIKYQKYWESM [GAL11] | 2.83 ± 0.065

Row | Sequence | protein stability index
100 | DTVEEKKEEKLNIGKNF [SIR4] | 2.71 ± 0.25
101 | DTYKRFKYLLGVTDLFR [ISW2] | 1.37 ± 0.052
102 | DTYPYLTGEWSTKFDYP [FAS1] | 2.96 ± 0.079
103 | DVDQHGNDNNSDSNANA [SWI3] | 3.25 ± 0.046
104 | DVFNLLPNLGTPDDDEI [RPN8] | 2.02 ± 0.079
105 | DVKISNDFFDNGDNLYG [RPN4] | 2.93 ± 0.063
106 | DVKLVLASNFDNFDYFN [MED1] | 3.19 ± 0.068
107 | DVKSSLSKVFSDVLFEF [YJL039C/NUP192] | 3.28 ± 0.071
108 | DVLKENNDADKGRSYAY [RIP1] | 3.5 ± 0.15
109 | DVNDVLTKYIRSKNLIF [GRR1] | 2.78 ± 0.08
110 | DVTHTLGMLDDNKMDSV [SMC4] | 3.03 ± 0.082
111 | DWPTYVDQNPLTMHKII [SRB8] | 2.76 ± 0.08
112 | DYCRILSDIETAVNGID [YGL172W/NUP49] | 3.15 ± 0.13
113 | DYKGAKLNVVGWFHSHP [RRI1] | 2.49 ± 0.1
114 | DYKTAFSYFFESFESYH [RPN6] | 2.77 ± 0.065
115 | DYSRKQLGYGKFLILNE [NUT1] | 2.31 ± 0.14
116 | DYVTNPDTKISSAAILG [RPN1] | 2.43 ± 0.1
117 | DYVVAPGVNREINSEMC [GRR1] | 3.18 ± 0.2
118 | EAARICANKYMTTVSGR [RPL10] | 2.59 ± 0.14
119 | EAFIASGITDPYEMYKY [FAS2] | 2.06 ± 0.05
120 | EALIEFIYDTEKNGGLG [FAS2] | 2.63 ± 0.076
121 | EARLPSQVVWIRRLRVL [RPL19A] | 1.63 ± 0.078
122 | EATREVFGISKTSSGSY [ITC1] | 3.09 ± 0.077
123 | EDAIHIALLTLKESVEG [PRE8] | 2.87 ± 0.085

Row | Sequence | protein stability index
124 | EDEDDGESEKSSDVDMD [RPC53] | 3.66 ± 0.14
125 | EDEEEFSIFNYFKMFPA [RPC34] | 2.2 ± 0.1
126 | EDLHEKNDSAEVRQETQ [NUT1] | 3.28 ± 0.2
127 | EDLKNFIFQIIEITNSN [SRB8] | 2.1 ± 0.056
128 | EDNKYAIAGNSTTNSDV [RGR1] | 2.92 ± 0.12
129 | EDQKVVDKALIAEIKKT [RPL6A] | 3.48 ± 0.084
130 | EDRNESVNIAFAISMGY [ECM29] | 2.89 ± 0.074
131 | EDSMIMNQSSIDRGLFR [RPB2] | 2.61 ± 0.093
132 | EEAYDNPHDTLNRIKKY [PRP8] | 3.2 ± 0.093
133 | EEEDSILSLEQSSRVVS [YCS4] | 3.24 ± 0.08
134 | EEEKSVDASPNDVTRRT [CSL4] | 3.33 ± 0.085
135 | EEEQDTGESEESSSEDD [IRR1] | 3.44 ± 0.23
136 | EEHHEEEPSRVDPEQEA [RPT4] | 3.28 ± 0.094
137 | EEKVLSTRLKKACKTAD [SRP68] | 3.22 ± 0.077
138 | EELVSLAVFLFDIYNRD [YJL039C/NUP192] | 1.24 ± 0.059
139 | EESIRESLQKRELLKSQ [SIR3] | 3.32 ± 0.068
140 | EESISKFPDMGSLWVEF [RPB5] | 2.98 ± 0.1
141 | EFDSTDTSLCINGEPSI [RRI1] | 3.15 ± 0.088
142 | EFESELKNVEETQEIKE [ESC2] | 3.46 ± 0.2
143 | EFGADWYKVAKNVGNKS [SWI3] | 3.34 ± 0.083
144 | EFGTYGKYVIAGHVSGV [RPN14] | 1.57 ± 0.22
145 | EFLFESLKNDLPQFRSS [ECM29] | 3.1 ± 0.092
146 | EGAEPGPPYTTDEHLIF [ISW2] | 2.99 ± 0.047

— the supplement of paper PMC9732359
